Numbering of substitutions follows the chain as printed.
T1: B7-1-hIgG1-biotin (human, UniProt P33681 35-233, biotin on the AVI tag (BirA))
T1 construct: Loaded on streptavidin beads; the paragraph gives residues only; also called B7-1-Fc-biotin; hB7-1 (residues 35-233) hIgG1-His10-AVI; not shown: C-terminal 10xHis and AVI tagged hIgG1 Fc domain
T1 chain: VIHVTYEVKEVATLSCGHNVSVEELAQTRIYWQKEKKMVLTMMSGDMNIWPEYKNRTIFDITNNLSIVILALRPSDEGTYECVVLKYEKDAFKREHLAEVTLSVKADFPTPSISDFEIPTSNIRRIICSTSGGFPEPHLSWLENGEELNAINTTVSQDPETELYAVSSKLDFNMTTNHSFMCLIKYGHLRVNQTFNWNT

T2: human B7-1 (CD80), full length, expressed on HEK 293 cells (Homo sapiens, UniProt P33681 35-280)
T2 construct: also called hB7-1; B7-1-mCherry
T2 sequence: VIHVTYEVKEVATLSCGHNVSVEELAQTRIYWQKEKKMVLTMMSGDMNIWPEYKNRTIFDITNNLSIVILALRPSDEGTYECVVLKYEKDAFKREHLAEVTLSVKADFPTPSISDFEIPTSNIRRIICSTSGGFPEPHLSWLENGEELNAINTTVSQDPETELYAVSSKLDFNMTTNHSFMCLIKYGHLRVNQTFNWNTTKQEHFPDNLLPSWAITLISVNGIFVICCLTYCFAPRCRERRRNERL

T3: human B7-1 K139D on cells (Homo sapiens, UniProt P33681 35-280)
T3 construct: mCherry-tagged point mutant; also called LYS139ASP; LYS139 ASP
T3 chain: T2 sequence with K105D

T4: human B7-1 R63D on cells (Homo sapiens, UniProt P33681 35-280)
T4 construct: mCherry-tagged point mutant; also called ARG63 ASP
T4 chain: T2 sequence with R29D

T5: human B7-1 N82E on cells (Homo sapiens, UniProt P33681 35-280)
T5 construct: C-terminally fused to mCherry; also called ASN82 GLU
T5 chain: T2 sequence with N48E

T6: human B7-1 K120D on cells (Homo sapiens, UniProt P33681 35-280)
T6 construct: mCherry-tagged point mutant; also called LYS120 ASP
T6 chain: T2 sequence with K86D

T7: human B7-1 K127D on cells (Homo sapiens, UniProt P33681 35-280)
T7 construct: mCherry-tagged point mutant; also called LYS127 ASP
T7 chain: T2 sequence with K93D

T8: mouse p75NTR (mouse, UniProt Q9Z0W1 32-427)
T8 construct: whole, on cells; also called mouse p75NTR-GFP; murine p75
T8 sequence (looked up): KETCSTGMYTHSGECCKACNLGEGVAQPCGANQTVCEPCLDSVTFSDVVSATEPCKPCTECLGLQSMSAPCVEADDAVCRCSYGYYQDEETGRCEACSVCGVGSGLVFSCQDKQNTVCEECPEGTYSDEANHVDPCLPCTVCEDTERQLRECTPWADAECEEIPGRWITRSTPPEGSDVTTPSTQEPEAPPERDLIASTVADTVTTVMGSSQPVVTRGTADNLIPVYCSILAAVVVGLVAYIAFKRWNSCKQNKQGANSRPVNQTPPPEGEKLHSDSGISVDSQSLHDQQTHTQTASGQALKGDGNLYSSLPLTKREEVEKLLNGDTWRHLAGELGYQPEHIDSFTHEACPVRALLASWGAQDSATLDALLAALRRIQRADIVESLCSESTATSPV

T9: rat p75NTR expressed on cells (rat, UniProt P07174 30-425)
T9 construct: whole, on cells; also called rat p75NTR-GFP; rodent p75NTR
T9 sequence (looked up): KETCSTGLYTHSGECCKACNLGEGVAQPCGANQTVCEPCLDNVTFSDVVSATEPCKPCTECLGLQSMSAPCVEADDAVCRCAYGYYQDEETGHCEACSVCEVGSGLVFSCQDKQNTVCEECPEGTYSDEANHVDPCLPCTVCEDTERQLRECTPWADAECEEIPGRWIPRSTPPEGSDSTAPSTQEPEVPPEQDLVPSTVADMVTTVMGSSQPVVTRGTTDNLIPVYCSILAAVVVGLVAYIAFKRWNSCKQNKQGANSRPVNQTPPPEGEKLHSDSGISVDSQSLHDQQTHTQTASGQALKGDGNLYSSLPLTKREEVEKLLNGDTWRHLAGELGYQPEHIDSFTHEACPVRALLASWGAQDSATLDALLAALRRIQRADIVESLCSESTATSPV

B1: p75NTR-mIgG2a (Fc fusion)
chain: KEACPTGLYTHSGECCKACNLGEGVAQPCGANQTVCEPCLDSVTFSDVVSATEPCKPCTECVGLQSMSAPCVEADDAVCRCAYGYYQDETTGRCEACRVCEAGSGLVFSCQDKQNTVCEECPDGTYSDEANHVDPCLPCTVCEDTERQLRECTRWADAECEEIPGRWITRSTPPEGSDSTAPSTQEPEAPPEQDLIASTVAGVVTTVMGSSQPVVTRGTTDN
notes: Full-length ectodomain; also called p75-mIgG2A; recombinant p75 mIgG2a; not shown: C-terminal mIgG2a-His10 Fc domain
B2: HVEM expressed on cells (receptor, human, UniProt Q92956 39-283, looked up)
chain: LPSCKEDEYPVGSECCPKCSPGYRVKEACGELTGTVCEPCPPGTYIAHLNGLSKCLQCQMCDPAMGLRASRNCSRTENAVCGCSPGHFCIVQDGDHCAACRAYATSSPGQRVQKGGTESQDTLCQNCPPGTFSPNGTLEECQHQTKCSWLVTKAGAGTSSSHWVWWFLSGSLVIVIVCSTVGLIICVKRRKPRGDVVKVIVSVQRKRQEAEGEATVIEALQAPPDVTTVAVEETIPSFTGRSPNH
notes: whole, on cells
B3: human p75 neurotrophin receptor, full length, expressed on HEK 293 cells (receptor)
chain: KEACPTGLYTHSGECCKACNLGEGVAQPCGANQTVCEPCLDSVTFSDVVSATEPCKPCTECVGLQSMSAPCVEADDAVCRCAYGYYQDETTGRCEACRVCEAGSGLVFSCQDKQNTVCEECPDGTYSDEANHVDPCLPCTVCEDTERQLRECTRWADAECEEIPGRWITRSTPPEGSDSTAPSTQEPEAPPEQDLIASTVAGVVTTVMGSSQPVVTRGTTDNLIPVYCSILAAVVVGLVAYIAFKRWNSCKQNKQGANSRPVNQTPPPEGEKLHSDSGISVDSQSLHDQQPHTQTASGQALKGDGGLYSSLPPAKREEVEKLLNGSAGDTWRHLAGELGYQPEHIDSFTHEACPVRALLASWATQDSATLDALLAALRRIQRADLVESLCSESTATSPV
notes: Full-length human p75 with a cytosolic fluorescent tag (GFP); also called p75NTR; NGFR
B4: mouse B7-1 expressed on cells (ligand)
chain: VDEQLSKSVKDKVLLPCRYNSPHEDESEDRIYWQKHDKVVLSVIAGKLKVWPEYKNRTLYDNTTYSLIILGLVLSDRGTYSCVVQKKERGTYEVKHLALVKLSIKADFSTPNITESGNPSADTKRITCFASGGFPKPRFSWLENGRELPGINTTISQDPESELYTISSQLDFNTTRNHTIKCLIKYGDAHVSEDFTWEKPPEDPPDSKNTLVLFGAGFGAVITVVVIVVIIKCFCKHRSCFRRNEASRETNNSLTFGPEEALAEQTVFL
notes: Cytosolic mCherry tag; also called mouse B7-1-mCherry; rodent B7-1

Assays:
[1] = target: T1, B7-1-hIgG1-biotin; test: Fc fusions titrated on streptavidin beads coated with B7-1-hIgG1-biotin, flow cytometry
Description: (§1) Binding was detected by flow cytometry on a SONY Spectral Analyzer (SA 3800). Binding curves were fit using the equation Y=Bmax*Xh/(Kdh+Xh).

[2] = target: T1, B7-1-hIgG1-biotin; test: p75-mIgG2A titrated on streptavidin beads coated with B7-1-hIgG1-biotin; anti-mIgG2A, flow cytometry
Description: as §1

[3] = target: T2, human B7-1 (CD80), full length, …; test: cell-cell screen, flow cytometry
Method: (§2) As illustrated, cells were transfected with expression cassettes expressing labeled receptors or labeled ligands, receptor-expressing cells were mixed with ligand-expressing cells and cell-to-cell binding was monitored by detecting the labels associated with the receptor and the ligand. […] Binding was detected using an anti-mIgG2A ab and flow cytometry. The binding curves were fit and the Bmax, EC50, and hill coefficient were calculated using the equation Y=Bmax*Xh/(Kdh+Xh).

[4] = target: T10, protein tyrosine phosphatase receptor type F expressed on cells (human, UniProt P10586 30-1907); test: cell-cell screen, flow cytometry
T10 construct: whole, on cells; also called PTPRF; PTPRF mCherry
Method: as §2

[5] = target: T2, human B7-1 (CD80), full length, …; test: cell-cell binding, flow cytometry; percent of the wild-type pair
[6] = target: T3, human B7-1 K139D on cells; test: as above
[7] = target: T4, human B7-1 R63D on cells; test: as above
[8] = target: T5, human B7-1 N82E on cells; test: as above
[9] = target: T6, human B7-1 K120D on cells; test: as above
[10] = target: T7, human B7-1 K127D on cells; test: as above
[11] = target: T8, mouse p75NTR; test: cell-cell binding, flow cytometry
[12] = target: T9, rat p75NTR expressed on cells; test: cell-cell binding, flow cytometry
[13] = target: B3; test: cell-cell binding, flow cytometry

Binder: B1
fold higher EC50 than B7-1:CTLA-4 [1]: ~30 fold | EC50 [2]: 16 nM

Binder: B2
binding result [3]: no binding

Binder: B3
binding result [4]: binds | percent binding [5]: 100% | percent binding [6]: 21% | percent binding [7]: 30% | percent binding [8]: 25% | percent binding [9]: 20% | percent binding [10]: 26%

Binder: B4
binding result [11]: no binding | binding result [12]: no binding | binding result [13]: no binding

Source: US20240201167A1 (ALBERT EINSTEIN COLLEGE OF MEDICINE, published 2024)
